Measurements: patent US20180057596A1
Numbering of substitutions follows the chain as printed. Read-outs that look alike come from different tables or passages of the source. Values belong to the binder of their own block, whether it stands above or below them.

Experiments:
[1] = target: antibody tested in the epitope mapping of Example 5; experiment: HTRF competition, test protein against biotinylated human IL-4Rα/Fc for cryptate labelled antibody
[2] = target: antibody tested in the epitope mapping of Example 5; experiment: as above; remark: listed apart in the source
[3] = target: antibody tested in the epitope mapping of Example 5; experiment: as above; remark: listed apart in the source
[4] = target: antibody tested in the epitope mapping of Example 5; experiment: HTRF competition

B2: AllMoLoopsHuIL-4Rα (receptor)
chain: MKVLQEPTCVSDYIRTSTCEWKMNGPTNCSTELRLLYQLMFFEFSENLTCIPENNGGAGCVCHLEMNRPVQSDRYTLDLWAGQQLLWKGSFKPSEHVKPRAPGNLTVHTNVSDTLLLTWNNLYPSNNYLYNHLTYAVNIWSENDPADFRIYNVTYLEPSLRIAASTLKSGISYRARVRAWSQILTGTWSEWSPSTKWHNSYREPFDYKDDDDKAAHHHHHHHHHH
% inhibition at the highest concentration (1000 nM) [1]: 41%

B4: MoLoop2HuIL-4Rα (receptor)
chain: MKVLQEPTCVSDYMSISTCEWKMNGPTNCSTELRLLYQLMFFEFSENLTCIPENNGGAGCVCHLLMDDVVSADNYTLDLWAGQQLLWKGSFKPSEHVKPRAPGNLTVHTNVSDTLLLTWSNPYPPDNYLYNHLTYAVNIWSENDPADFRIYNVTYLEPSLRIAASTLKSGISYRARVRAWAQCYNTTWSEWSPSTKWHNSYREPFDYKDDDDKAAHHHHHHHHHH
IC50 [3]: 25 nM
IC50 [1]: 23 nM
fold higher IC50 than human IL-4Rα [4]: 100 fold

B5: EM23 (receptor)
chain: B4 chain with L48H
IC50 [3]: 56 nM

B8: EM01 (receptor)
chain: MKVLQEPTCVSDYMSISTCEWKMNGPTNCSTELRLLYQLVFLLSEAHTCIPENNGGAGCVCHLEMDDVVSADNYTLDLWAGQQLLWKGSFKPSEHVKPRAPGNLTVHTNVSDTLLLTWSNPYPPDNYLYNHLTYAVNIWSENDPADFRIYNVTYLEPSLRIAASTLKSGISYRARVRAWAQCYNTTWSEWSPSTKWHNSYREPFNPAFLYKVVGAADYKDDDDKAAHHHHHHHHHH
IC50 [2]: 0.71 nM

B10: EM04 (receptor)
chain: B8 chain with E64L, V68P
fold higher IC50 than human IL-4Rα [4]: 20 fold
IC50 [2]: 15 nM

B12: EM06 (receptor)
chain: B8 chain with E64L, A71S
IC50 [2]: 3.25 nM

B13: EM07 (receptor)
chain: B8 chain with E64L, N73R
IC50 [2]: 1.41 nM

B14: EM03 (receptor)
chain: B8 chain with E64L, D67R
% inhibition at the highest concentration (1000 nM) [2]: 29%

B15: MoD1HuD2IL-4Rα (receptor)
chain: IKVLGEPTCFSDYIRTSTCEWFLDSAVDCSSQLCLHYRLMFFEFSENLTCIPRNSASTVCVCHMEMNRPVQSDRYQMELWAEHRQLWQGSFSPSGHVKPRAPGNLTVHTNVSDTLLLTWSNPYPPDNYLYNHLTYAVNIWSENDPADFRIYNVTYLEPSLRIAASTLKSGISYRARVRAWAQCYNTTWSEWSPSTKWHNSYREPFDYKDDDDKAAHHHHHHHHHH
% inhibition at the highest concentration (1000 nM) [1]: 34%

Now from value to binder:

% inhibition at the highest concentration (1000 nM) [1]: 58%
% inhibition at the highest concentration (1000 nM) [2]: 45%
B1: MoLoop3HuIL-4Rα (receptor)
chain: MKVLQEPTCVSDYMSISTCEWKMNGPTNCSTELRLLYQLVFLLSEAHTCIPENNGGAGCVCHLEMNRPVQSDRYTLDLWAGQQLLWKGSFKPSEHVKPRAPGNLTVHTNVSDTLLLTWSNPYPPDNYLYNHLTYAVNIWSENDPADFRIYNVTYLEPSLRIAASTLKSGISYRARVRAWAQCYNTTWSEWSPSTKWHNSYREPFDYKDDDDKAAHHHHHHHHHH

IC50 [1]: 3.4 nM
B3: HuD1MoD2IL-4Rα (receptor)
chain: MKVLQEPTCVSDYMSISTCEWKMNGPTNCSTELRLLYQLVFLLSEAHTCIPENNGGAGCVCHLLMDDVVSADNYTLDLWAGQQLLWKGSFKPSENVKPLAPDNLTLHTNVSDEWLLTWNNLYPSNNLLYKDLISMVNISREDNPAEFIVYNVTYKEPRLSFPINILMSGVYYTARVRVRSQILTGTWSEWSPSITWYNHFQLPLDYKDDDDKAAHHHHHHHHHH

IC50 [3]: 20 nM
B6: EM18 (receptor)
chain: B4 chain with M40V

% inhibition at the highest concentration (1000 nM) [1]: 45%
B7: MoIL-4Rα (receptor)
chain: IKVLGEPTCFSDYIRTSTCEWFLDSAVDCSSQLCLHYRLMFFEFSENLTCIPRNSASTVCVCHMEMNRPVQSDRYQMELWAEHRQLWQGSFSPSGNVKPLAPDNLTLHTNVSDEWLLTWNNLYPSNNLLYKDLISMVNISREDNPAEFIVYNVTYKEPRLSFPINILMSGVYYTARVRVRSQILTGTWSEWSPSITWYNHFQLPLNPAFLYKVVGAADYKDDDDKAAHHHHHHHHHH

IC50 [2]: 2.25 nM
B9: EM02 (receptor)
chain: B8 chain with E64L, D66N

IC50 [2]: 1.65 nM
B11: EM05 (receptor)
chain: B8 chain with E64L, S70Q
